Test results from article PMC8894350, “Mechanism of cooperative N-glycan processing by the multi-modular endoglycosidase EndoE” (Nature Communications, 2022).

Key:
[1] = target: T1, EndoE-GH18L (Enterococcus faecalis, UniProt Q6U890); experiment: X-ray crystal structure of the complex, […] Å; format: binding; details: co-crystallised with 2.5 mM Man5GlcNAc; pH 6.5 Bis-Tris propane; GH18 active-site groove
T1 construct: gene ndoE; GH18 domain plus linker region (3HB-1, 3HB-2), residues 56-486; GST tag cut by TEV (GSG linker); E. coli BL21(DE3)
T1 sequence (Q6U890 entry or part of it): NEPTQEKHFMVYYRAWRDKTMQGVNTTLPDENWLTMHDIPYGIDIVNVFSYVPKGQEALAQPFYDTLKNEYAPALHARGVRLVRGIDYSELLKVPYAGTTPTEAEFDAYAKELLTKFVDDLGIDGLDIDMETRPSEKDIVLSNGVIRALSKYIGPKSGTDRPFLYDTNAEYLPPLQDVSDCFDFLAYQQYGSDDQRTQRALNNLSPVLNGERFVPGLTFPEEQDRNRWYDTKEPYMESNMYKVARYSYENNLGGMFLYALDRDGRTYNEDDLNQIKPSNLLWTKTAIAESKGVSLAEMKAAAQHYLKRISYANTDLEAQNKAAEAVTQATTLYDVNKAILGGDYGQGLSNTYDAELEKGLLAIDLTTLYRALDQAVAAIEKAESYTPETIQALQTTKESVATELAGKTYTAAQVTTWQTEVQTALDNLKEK

[2] = test system: CC(=O)N[C@H]1[C@H](Oc2ccc([N+](=O)[O-])cc2)O[C@H](CO)[C@@H](O)[C@@H]1O; experiment: purified protein; details: PCTP buffer pH 8, 5 nM enzyme, 0.09-12 mM substrate, GH20 active site within full-length EndoE
[3] = test system: CC(=O)N[C@H]1[C@H](Oc2ccc([N+](=O)[O-])cc2)O[C@H](CO)[C@@H](O)[C@@H]1O; experiment: purified protein; format: biochemical, Enterococcus faecalis; details: PCTP buffer pH 8, 5 nM enzyme, 0.09-12 mM substrate, isolated GH20 domain

`CC(=O)N[C@H]1C(O)O[C@H](CO)[C@@H](O[C@@H]2O[C@H](CO[C@H]3O[C@H](CO[C@H]4O[C@H](CO)[C@@H](O)[C@H](O)[C@@H]4O)[C@@H](O)[C@H](O[C@H]4O[C@H](CO)[C@@H](O)[C@H](O)[C@@H]4O)[C@@H]3O)[C@@H](O)[C@H](O[C@H]3O[C@H](CO)[C@@H](O)[C@H](O)[C@@H]3O)[C@@H]2O)[C@@H]1O` (some centres unmarked) [Man5, Man5GlcNAc] was tested, and the “X-ray crystal structure of the complex, 2.6 Å” value [1] was “crystal structure of EndoE-GH18L in complex with the Man5GlcNAc (Man5) product”.
For EndoE (Enterococcus faecalis), the Km [2] was 450 µM and the kcat [2] was 41 s⁻¹.
In the case of EndoE-GH20 (Enterococcus faecalis), the Km [3] was 970 µM and the kcat [3] was 86 s⁻¹.
